US20250129140A1, “ANTI-HCMV ANTIBODIES AND ANTIGEN-BINDING FRAGMENTS THEREOF” (ICAHN SCHOOL OF MEDICINE AT MOUNT SINAI, priority 2021, published 2025)

B1: 14E1 (antibody, V domains shown)
VH: QVQLVQSGAEVKKPGASVKVSCKASGYTFTSYSISWVRQAPGQGLEWMGWINTYNGNTNYAQRVQARVTMTTDTSTSTAYMELRSLRSDDTAVYYCARDHGFFFDYWGQGNLVTVSS
VL: DIQLTQSPSFLSASVGDRVTITCWASQGISSYLAWYQQKPGKAPKLLIYAASTLQSGVPSRFSGSGSGTEFTLTISSLQPEDFATYYCQQLNSYPYTFGQGTQLEIK
B2: 9A12: anti-HCMV gH/gL monoclonal antibody, fusion 2; VH SEQ ID NO:59, VL SEQ ID NO:60; chimeric and fully human IgG1 versions (antibody, V domains shown)
VH: EVQLVESGGVLVQPGGSLRLSCAASGFTFSSHEMNWVRQAPGKGLEWISYISSTGSTIYDADSVKGRFTISRDNAKNSLYLQMNSLRAEDTAVYYCARSSGWYRNYSYGMDVWGQGTTVTVSS
VL: DIQMAQSPSSLSASVGDRVTITCRASQGIYNYLAWFQQKPGKAPKSLIYAASSLQTGVPSKFSGSGSGTDFTLTISNLQPEDFATYYCQQYNSFPRTFGQGTKVEIK
modifications: IgG1 constant regions
notes: anti-HCMV gH/gL monoclonal antibody, fusion 2; chimeric and fully human IgG1 versions
B3: 13G1: anti-HCMV gH/gL monoclonal antibody, fusion 3; VH SEQ ID NO:38, VL SEQ ID NO:39; chimeric and fully human IgG1 versions (antibody, V domains shown)
VH: QVTLKESGPVLVKPTETLTLTCTVSGFSLYNARMGVTWIRQPPGKALEWLAHIFSNDERSYTSSLKNRLTISKDTSKSQVVLTMTNMDPVDTATYYCARIDYSNYIGNWFDPWGQGTLVTVSS
VL: DIQMTQSPSSLSASVGDRVTITCRASQSISNYLNWYQQKPGKAPKLLIYAASSLQGGVPSRFSGSGSGTDFTLTISSLQPEDFTTYYCQQSYSTPFTFGGGTKVEIK
modifications: IgG1 constant regions
notes: anti-HCMV gH/gL monoclonal antibody, fusion 3; chimeric and fully human IgG1 versions

What was measured:
[1] = tested on: HCMV AD169R; assay: Neutralization by fully human versus chimeric antibody versions; format: cell-based, Human cytomegalovirus; details: human IgG1 Fc versus mouse Fc
Experimental: Increasing concentrations of monoclonal antibodies (0.016-50 μg/mL) were incubated with AD169R (MOI 0.2) to assess neutralizing capacity. Percent infection was quantified using GFP expression at 18 hpi and normalized based on infection with virus alone (no antibody). CMV hyperimmune globulin (CytoGam®) was used as a control (trace on the upper right in FIGS. 8A, 8B, 8C, and 8D). FIG. 8A. […] FIG. 8B. Fully human (hu, comprising human variable and human constant regions) and chimeric (ms, comprising human variable and murine constant regions) versions of 9A12. FIG. 8C. Fully human (hu, comprising human variable and human constant regions) and chimeric (ms, comprising human variable and murine constant regions) versions of 13G1. FIG. 8D. Fully human (hu, comprising human variable and human constant regions) and chimeric (ms, comprising human variable and murine constant regions) versions of 14E1.
For this, the mouse Fc region of these mAbs was replaced with the human IgG1 Fc region.

[2] = tested on: recombinant HCMV pentamer (strain VR1814) consisting of gH, gL, UL128, UL130 and UL131A; assay: Biolayer interferometry (Octet RED) KD determination; format: binding, Human cytomegalovirus; details: for kon: association 3 minutes; for kdis: dissociation 3 minutes in PBS
Experimental: Biolayer interferometry assays were performed using the Octet RED instrument (ForteBio, Inc.) to determine the association (kon) and dissociation (kdis) constants for each antibody. Purified monoclonal antibody was loaded onto the anti-mouse Fc IgG capture (AMC) biosensors using 5-fold dilutions (50-0.016 μg/mL in PBS) for 10 minutes. To determine the kon, the sensors were exposed to the recombinant HCMV pentamer (strain VR1814) consisting of gH, gL, UL128, UL130 and UL131A (Native Antigen, CMV-PENT-100) at a constant concentration of 100 μg/mL in PBS for 3 minutes. To determine the kdis, dissociation was measured over the course of 3 minutes while the sensors were in PBS buffer. KD values were calculated as a ratio of […].
To examine this further, 293 Expi cells were transfected with wildtype gH, wildtype gL, cotransfected with gH and gL (gH+gL), transfected with a single plasmid expressing both gH and gL (gH/gL) or co-transfected a variety of gH mutants and gL. Three days post transfection the cells were harvested and stained with unlabeled primary at 0.5 μg/mL using the antibodies indicated. Transfection efficiency was determined by measuring GFP expression on day 3 and binding was determined by percent Alexa Fluor 647 positive cells using a conjugated secondary. […] The binding profile for 1G9 is most similar to 10F8. Although the ratios of gH, gL and gO plasmid were 1:1:1 it is not certain how efficiently the trimer was assembled following transfection. […] To discern minute differences in antibody binding biolayer interferometry was used, immobilizing each of the purified monoclonal antibodies (50-0.016 μg/mL) onto anti-mouse IgG Fc capture (AMC) biosensors and exposing the sensors to recombinant pentamer (100 μg/mL).

[3] = tested on: HCMV BADrUL131; assay: Dissemination / focus forming unit (FFU) assay in ARPE-19 cells; format: cell-based, Human cytomegalovirus
Experimental: ARPE-19 or NHDF cells were plates at 50,000 cells per well in a 24 well and infected the following day. TB40/E (MOI 0.01) and AD169RBAD^rUL131 (MOI 0.1 & 0.01) was incubated with either 10 μg/mL or 0.5 μg/mL of antibody one hour prior to addition to cells. Following a 2 hr incubation at 37° C., 5% CO2 the inoculum was removed, and cells were overlaid with 1% low melt temperature sea agarose overlay. The overlay was allowed to solidify at room temp and then 500 μL of media was added before cells were put back into the incubator. At 7 days post infection, the cells were scanned using the brightfield and GFP filters and then placed back into the tissue culture incubator until the assay was stopped by fixation and immunostaining on day 10 or 14 as indicated.
Next, a focus forming unit (FFU) assay was optimized to examine the antibodies ability to block viral replication and dissemination over multiple infection cycles. […] Once the assay was terminated at Day 10 or 14, the cells were fixed and performed immunostaining to quantify total cells by Hoechst or infection using IE1-1 as readout for infection. […] The number of FFUs was quantified per well, using 10,000 μm^2 as a cutoff for plaque area. […] Images were taken on day 7 post infection and the relative number of plaques per well was calculated compared to wells that received an irrelevant control antibody M2E10. […]

[4] = tested on: HCMV; assay: Virus neutralization, summary statements across cell types and strains; format: cell-based, Human cytomegalovirus; details: MRC5; TB40/E, AD169R, TR, Towne
Experimental: AD169R^BADrUL131, TB40E, TR, or Towne was pre-incubated with monoclonal antibodies (starting dilution of 100 μg/mL antibody) was diluted using 5 fold dilutions to achieve a final range of 50-0.016 μg/mL antibody after addition to 25 μL of media containing virus; final MOI 0.2) and incubated at 4° C. for 1 hr before the inoculum was added to the appropriate cell types (ARPE-19, HTR-svNeo, MRC5, or NHDF cells at 10,000 cells per well) for 2 hrs at 37° C., 5% CO2. Following infection, the inoculum was removed and replaced with 100 μL complete DMEM/F-12 media before an overnight incubation at 37° C., 5% CO2.
Cells were fixed using 4% paraformaldehyde (PFA) for 20 minutes at room temp. Cells were then permeabilized using 0.3% Triton X-100 (Thermo Fisher, #HFH10) in PBS and stained with an affinity-purified, polyclonal rabbit anti-IE1-1/2 (0.7 ng/ml) primary and an anti-rabbit Alexa Fluor 647 (1:1000) secondary. To quantify total cells per well, Hoechst (Molecular Probes, #H3570) was diluted 1:100,000 in PBS and incubated with cells for 20 minutes at room temp. Virus neutralization was quantified using a Celigo cytometer (Nexelcom Bioscience). Percent infection was calculated using ((#IE1-1+)/(#Hoechst+))*100 events per well and normalized to the percent infection when an irrelevant, non-neutralizing, or no antibody was used.
The student's unpaired, two tailed t tests were performed using the GraphPad Prism software (La Jolla, CA). An asterisk identifies statistical significance of P<0.05 or less.

[5] = target: T1, gH/gL/gO trimer (Human cytomegalovirus, UniProt F5HCH8+Q6SW67, DEL177-177/E103D/E61Q/G77R); assay: Binding to 293 Expi cells transfected with gH/gL/gO; details: 3 days post transfection
T1 construct: expressed in transfected cells; host or cells: 293 Expi (Expi293F) cells
Experimental: (§1) gH mutants were cloned into pcDNA 3.1 and co-transfected with gL (1:1 ratio, 6 μg plasmid total) with lipofectamine 2000 (Thermo Fisher, #11668019) into 293Expi cells (7.5×10^6). Cells were harvested 3 days post transfection and fixed before being incubated with α-gH antibodies (2 μg/mL) for 1 hr at RT. Cells were washed and then incubated in anti-mouse AF647 conjugated secondary (1:1000) in order to quantify binding. Transfection efficiency was determined using pMAX eGFP plasmid which was spiked in at 0.1 μg per well.
(§2) To examine this further, 293 Expi cells were transfected with wildtype gH, wildtype gL, cotransfected with gH and gL (gH+gL), transfected with a single plasmid expressing both gH and gL (gH/gL) or co-transfected a variety of gH mutants and gL. Three days post transfection the cells were harvested and stained with unlabeled primary at 0.5 μg/mL using the antibodies indicated. Transfection efficiency was determined by measuring GFP expression on day 3 and binding was determined by percent Alexa Fluor 647 positive cells using a conjugated secondary. […] The binding profile for 1G9 is most similar to 10F8. Although the ratios of gH, gL and gO plasmid were 1:1:1 it is not certain how efficiently the trimer was assembled following transfection. […]

[6] = tested on: CMV TB40/E infected fibroblasts; assay: SCID mouse gelfoam implant model of CMV proliferation; format: in vivo, SCID mice; details: fully human mAbs 4 or 18 mg/kg, ganciclovir 50 mg/kg; i.p. every three days; day ten; versus isotype control
Experimental: At day ten post-implantation, the cells were released from the gelfoam and DNA extracted from the cells was subjected to qPCR for the HCMV UL123 and β-actin genes. The relative CMV levels cells were determined from Ct values of qPCR analysis (in triplicate) from cells collected from three mice/treatment. Statistical tests were performed using ordinary one-way ANOVA with comparisons to isotype treated cells as a control and a Dunnett's post-test; **, p<0.01; ***, p<0.001; ****, p<0.0001.
The gelfoam was implanted subcutaneously in three mice per group. […] Treatments were administrated every three days for nine days. At day ten post-implant, the gelfoam was removed and cells were released from the gel foam by collagenase treatment. The total DNA was harvest from the cells, quantified, and subjected to qPCR for UL123 (CMV gene) and b-actin (housekeeping geen) using SYBR green to evaluate virus proliferation. The qPCR analysis was performed in triplicate from three animals to determine the Ct values for UL123 and b-actin to calculate the relative levels of CMV DNA from the gelfoam samples.

[7] = target: T2, gH monomer (Human cytomegalovirus, UniProt Q6SW67); assay: Binding to 293 Expi cells transfected with gH alone; details: 3 days post transfection
T2 construct: expressed in transfected cells; host or cells: 293 Expi (Expi293F) cells
Experimental: as §1, §2

[8] = tested on: HCMV gB (U373-gB cells); assay: Flow cytometry binding to U373-gB cells; set-up: species or system Human cytomegalovirus

Molecule | IC50 / neutralizing capacity of fully human version compared to chimeric counterpart [1] | kon [2] | kdis [2] | rank of binding constant within the panel ([2]; recombinant pentamer) | limiting viral dissemination at low concentration [3] | neutralization of infection across all strains [4] | binding to cells transfected with gH/gL/gO [5] | CMV DNA levels (UL123 relative to β-actin, qPCR) [6] | binding to cells transfected with gH alone [7] | binding to the surface of U373-gB cells ([8]; live cells, surface) | binding to U373-gB cells fixed and permeabilized ([8]; permeabilized cells)
B1 | improved IC50 values | 24400 M⁻¹ s⁻¹ | 0.00158 s⁻¹ | weakest | effective | – | – | – | – | – | –
B2 | remained unchanged | 24800 M⁻¹ s⁻¹ | 8.6e-05 s⁻¹ | – | – | consistently neutralized infection | bound | limit CMV infection and proliferation | bound | – | –
B3 | improved IC50 values | 12900 M⁻¹ s⁻¹ | 6.51e-05 s⁻¹ | – | – | consistently neutralized infection | – | limit CMV infection and proliferation | – | bind non-specifically | does not significantly bind
